Data published in patent US20260176619A1 (published 2026).

T1: His-tagged recombinant human CD45 (human, UniProt P08575 26-577, limits assumed)
T1 construct: His-tagged
T1 sequence (looked up): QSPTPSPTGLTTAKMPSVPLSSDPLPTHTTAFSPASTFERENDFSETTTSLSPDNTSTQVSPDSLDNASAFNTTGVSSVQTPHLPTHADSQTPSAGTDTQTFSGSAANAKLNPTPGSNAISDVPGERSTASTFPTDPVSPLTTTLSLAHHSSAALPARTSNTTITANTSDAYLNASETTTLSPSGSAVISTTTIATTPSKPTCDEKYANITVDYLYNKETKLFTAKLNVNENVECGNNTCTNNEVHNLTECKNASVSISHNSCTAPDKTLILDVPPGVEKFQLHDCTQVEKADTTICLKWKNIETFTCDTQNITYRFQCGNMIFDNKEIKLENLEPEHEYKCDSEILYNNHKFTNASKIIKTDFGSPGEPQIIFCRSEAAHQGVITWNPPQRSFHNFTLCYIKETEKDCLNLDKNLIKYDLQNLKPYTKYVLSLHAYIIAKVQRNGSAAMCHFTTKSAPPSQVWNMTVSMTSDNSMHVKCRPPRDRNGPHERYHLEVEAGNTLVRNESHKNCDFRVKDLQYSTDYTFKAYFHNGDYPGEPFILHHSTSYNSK


The binders below were run against T1, His-tagged recombinant human CD45 (assay: assay not given; the affinity ELISA is described in Example 22).
Description: 20 nM His-tagged recombinant human receptors: CD117, CD45, CD46, CD133, and CD135, were immobilized onto nickel coated plates overnight at 4° C. in TBS buffer. Non-bound receptors were removed with three-washes of 1×TBS-T buffer. Blocking buffer was added to each well and incubated plate for 0.5 hr at room temperature with continuous shaking of 550 rpm. The plate was washed with 1X TBS-T. Serial dilutions of candidate ligands with concentrations ranged from 2 pM to 1 μM were added to each well and incubated for 1 hr at room temperature with continuous shaking of 550 rpm. After three washes of 1X TBS-T, horseradish peroxidase (HRP) enzyme liked FLAG antibody solution (1:200) was added to each well for 1 hr at room temperature with continuous shaking of 550 rpm. Chemiluminescent substrate was added and HRP enzymic activity was measured using an […]. The data was analyzed by non-linear regression to estimate binding affinity.

Binder	Kd [nM]
L122-CD45 scFv (scFv, Full scFv-FLAG tagged with an extra C-terminal cys residue) scFv: EVKLLESGGGLVQPGGSLKLSCAASGFDFSRYWMSWVRQAPGKGLEWIGEINPTSSTINFTPSLKDKVFISRDNAKNTLYLQMSKVRSEDTALYYCARGNYYRYGDAMDYWGQGTSVTVSSAKGGGGSGGGGSGGGGSGGGGSDIALTQSPASLAVSLGQRATISCRASKSVSTSGYSYLHWYQQKPGQPPKLLIYLASNLESGVPARFSGSGSGTDFTLNIHPVEEEDAATYYCQHSRELPFTFGSGTKLEIKGGGGSGGGGSDYKDDDDKGGGGSC	> 10
L112-CD45 scFv (scFv, Full scFv-FLAG tagged with an extra C-terminal cys residue) scFv: EVQLVESGGDLVQPGRSLKLSCVASGFTFNNYWMTWIRQVPGKGLEWVASISSSGGSIYYPDSVKDRFTISRDNAKNTLFLQMNSLRSEDTATYYCARLYYYSGGGDAWGQGTSVTVSSGGGGSGGGGSGGGGSGGGGDIQMTQSPSFLSASVGDRVTIICKASQDINKYLDWYQQKLGEAPKLLIYNTNNLHTGIPSRFSGSGSGTDYTLTISSLQPEDVATYFCLQHISRWTFGGGTKLELKGGGGSGGGGSDYKDDDDKGGGGSC	> 10
L111-CD45 scFv (scFv, Full scFv-FLAG tagged with an extra C-terminal cys residue; also called L11I-CD45; LIII-CD45 scFv) scFv: DIQMTQSPSFLSASVGDRVTINCKASQNINKYLDWYQQKHGEAPKLLIHYTNNLHTGIPSRFSGSGSGTDYTLTISSLQPEDVATYFCLQHSSRWTFGGGTKLELKGGGGSGGGGSGGGGSGGGGEVQLVESGGDLVQPGRSLKLSCIASGFTFTNFWMTWIRQVSGKGLEWVASISSSGGSIYYPDSVKDRFTISRDNAKNTLYLQMNSLRSEDTATYYCVKLHYYSGGGDAWGQGTSVTVSSGGGGSGGGGSDYKDDDDKGGGGSC	> 10
